According to publication PMC11898274, “Interleukin-34 orchestrates bone formation through its binding to bone morphogenic proteins” (Theranostics, 2025):
Each block holds one binder with its values, some of them ahead of it.

Legend:
[1] = target: T1, Recombinant human interleukin-34 (IL34) (human, UniProt Q6ZMJ4 21-242); assay: SPR; BMP2, BMP4 or BMP7 immobilised (1500-2300 RU) on CM5-S chip by amine coupling at pH 4.5; IL34 injected in one cycle titration (12.5-200 nM, 60 s, 100 µL/min), 600 s dissociation; T200, 25 °C, PBS pH 7.4 with 0.05% P20; bivalent fitting model; settings: both partners purified
T1 construct: Interleukin-34, human, recombinant; source: bought: R&D Systems
T1 sequence (looked up): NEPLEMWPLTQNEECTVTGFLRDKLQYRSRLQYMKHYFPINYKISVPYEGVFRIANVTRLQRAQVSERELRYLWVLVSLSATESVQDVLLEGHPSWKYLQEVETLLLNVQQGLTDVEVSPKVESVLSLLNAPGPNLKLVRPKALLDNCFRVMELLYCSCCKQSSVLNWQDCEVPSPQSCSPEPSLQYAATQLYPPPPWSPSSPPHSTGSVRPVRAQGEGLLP

[2] = target: T1, Recombinant human interleukin-34 (IL34); assay: SPR; receptors captured on immobilized anti-human Fc; IL34 injected (18.75, 37.5, 75, 150, 300 nM); T200, 25 °C, PBS pH 7.4 with 0.05% P20; steady-state fitting model; settings: both partners purified
[3] = target: T2, Recombinant human bone morphogenetic protein 2 (BMP2) (human, UniProt P12643 283-396); assay: SPR
T2 chain: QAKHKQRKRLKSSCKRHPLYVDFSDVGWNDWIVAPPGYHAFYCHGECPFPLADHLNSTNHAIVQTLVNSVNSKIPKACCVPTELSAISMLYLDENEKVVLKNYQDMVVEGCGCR

[4] = target: T3, Recombinant human bone morphogenetic protein 4 (BMP4) (human, UniProt P12644 293-408); assay: SPR
T3 chain: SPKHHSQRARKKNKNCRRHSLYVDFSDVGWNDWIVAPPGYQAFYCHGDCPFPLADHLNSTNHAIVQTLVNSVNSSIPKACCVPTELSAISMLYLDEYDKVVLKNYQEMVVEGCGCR

[5] = target: T4, Recombinant human bone morphogenetic protein 7 (BMP7) (human, UniProt P18075 293-431); assay: SPR
T4 chain: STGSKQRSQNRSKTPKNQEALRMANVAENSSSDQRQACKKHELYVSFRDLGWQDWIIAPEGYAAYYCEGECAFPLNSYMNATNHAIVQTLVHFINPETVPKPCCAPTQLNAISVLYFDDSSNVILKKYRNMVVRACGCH

B1: Recombinant human bone morphogenetic protein 2 (BMP2) (ligand, UniProt P12643 283-396, looked up)
chain: T2 chain
notes: Bone morphogenetic protein 2, human, recombinant; source: bought: R&D Systems
Kd [1]: 363 nM

B3: Recombinant human bone morphogenetic protein 7 (BMP7) (ligand, UniProt P18075 293-431, looked up)
chain: T4 chain
notes: Bone morphogenetic protein 7, human, recombinant; source: bought: R&D Systems
Kd [1]: 922 nM

B5: Recombinant human bone morphogenetic protein 4 (BMP4) (ligand, UniProt P12644 293-408, looked up)
chain: T3 chain
notes: Bone morphogenetic protein 4, human, recombinant; source: bought: R&D Systems
Kd [1]: 426 nM

The remaining lines, values ahead:

binding result [2]: binds
B2: Human Activin RIIB receptor (ActRIIB) (Fc fusion, UniProt Q13705 19-137, looked up)
chain: SGRGEAETRECIYYNANWELERTNQSGLERCEGEQDKRLHCYASWRNSSGTIELVKKGCWLDDFNCYDRQECVATEENPQVYFCCCEGNFCNERFTHLPEAGGPEVTYEPPPTAPTLLT
notes: Activin receptor type-2B, human recombinant; source: bought: R&D Systems

koff [3]: 0.0229 s⁻¹ | koff [4]: 0.0467 s⁻¹ | koff [5]: 0.0561 s⁻¹
B4: Recombinant human interleukin-34 (IL34) (ligand)
chain: T1 sequence (looked up)
